The values that follow come from patent publication US20190367631A1 (Regeneron, published 2019).

Where a chain is given by its changes, count along the chain named. Names and notes keep the numbering of the source. Some results are limits rather than exact numbers.

Assay [1] deals with T1, human MSR1 extracellular domain expressed with a N-terminal nonahistidine tag (human, UniProt P21757 77-451).
T1 construct: extracellular domain; also called His9-hMSR1; His-hMSR1
T1 sequence: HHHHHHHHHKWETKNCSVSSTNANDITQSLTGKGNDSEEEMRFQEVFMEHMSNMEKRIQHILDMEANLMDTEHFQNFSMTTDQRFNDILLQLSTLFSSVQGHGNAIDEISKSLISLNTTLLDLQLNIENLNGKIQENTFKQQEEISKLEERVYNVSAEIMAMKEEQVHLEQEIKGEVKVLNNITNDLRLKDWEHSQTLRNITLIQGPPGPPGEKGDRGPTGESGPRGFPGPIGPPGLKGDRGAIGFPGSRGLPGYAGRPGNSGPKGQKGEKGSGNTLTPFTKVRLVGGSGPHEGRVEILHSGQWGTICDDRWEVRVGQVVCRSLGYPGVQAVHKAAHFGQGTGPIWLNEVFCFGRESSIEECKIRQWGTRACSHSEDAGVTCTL
Kind of assay: competition ELISA, plate-coated His9-hMSR1; 1 µM antibody, competitor ligand 10 nM Ox-LDL. Background: An ELISA detects its analyte on a solid surface through an enzyme-linked reagent.
Experimental: (§1) Buffer alone was also added to wells on each coat. […] This assay was conducted in four different assay runs.
(§2) Data analysis was performed using a sigmoidal dose-response model within Prism™ software (GraphPad).

The target of assay [2] is T1, human MSR1 extracellular domain …. Kind of assay: competition ELISA, plate-coated His9-hMSR1; 100 nM antibody, competitor ligand Ac-LDL.
Experimental: as §1, §2
For assay [3] the target is unchanged. Kind of assay: competition ELISA, plate-coated His9-hMSR1; 300 nM antibody, competitor ligand biot-AGE-BSA.
Experimental: as §1, §2
In assay [4] the target is T2, full length monkey MSR1 on HEK293.mfMSR1 cells (Macaca fascicularis, UniProt A0A2K5UWE2 1-451).
T2 construct: whole, on cells
T2 sequence: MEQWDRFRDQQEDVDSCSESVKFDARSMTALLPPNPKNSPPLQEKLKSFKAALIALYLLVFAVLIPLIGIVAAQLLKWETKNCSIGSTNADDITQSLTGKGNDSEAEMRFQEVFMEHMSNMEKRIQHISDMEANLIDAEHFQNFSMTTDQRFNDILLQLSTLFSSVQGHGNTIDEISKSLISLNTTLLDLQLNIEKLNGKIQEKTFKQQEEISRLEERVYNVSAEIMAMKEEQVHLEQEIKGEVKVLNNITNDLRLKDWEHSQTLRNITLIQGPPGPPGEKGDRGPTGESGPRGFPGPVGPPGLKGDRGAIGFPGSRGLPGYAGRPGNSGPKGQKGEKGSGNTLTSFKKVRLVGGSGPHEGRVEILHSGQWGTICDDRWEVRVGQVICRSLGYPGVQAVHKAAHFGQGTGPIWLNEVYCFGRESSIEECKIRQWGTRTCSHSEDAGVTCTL
Kind of assay: ECL cell binding, HEK293.mfMSR1 cells, 11 nM.
Experimental: All cells were washed once with 1×PBS with Ca²⁺/Mg²⁺ and counted with a Cellometer™ Auto T4 cell counter (Nexcelom Bioscience). Approximately 1.0×10⁴ cells were seeded separately onto 96-well carbon electrode plates [MULTI-ARRAY high bind plate, Meso Scale Diagnostics] and incubated for 1 hour at 37° C. Non-specific binding sites were then blocked by 2% BSA (w/v) in PBS with Ca²⁺/Mg²⁺ for 1 hour at room temperature. THP-1 cells were pre-incubated for 0.5 hours at room temperature in sample dilution buffer with: 1) 1 mg/mL Fc receptor block reagents to block Fc gamma receptors on THP-1 cell surface [whole molecule human IgG (Jackson Immunoresearch, Cat #009-000-003) for wells being tested with anti-MSR1-mFc antibodies or 2) whole molecule mlgG (Jackson Immunoresearch, Cat #015-000-003) for wells being tested with anti-MSR1-hFc antibodies. Antibody binding on HEK293.Myc.hMSR1, HEK293.mfMSR1 and HEK293 cells was tested without Fc receptor block reagents. […] Plates were then washed to remove unbound antibodies an AquaMax2000 plate washer with a cell washing head (MDS Analytical Technologies). […] Plates were washed and developed with Read Buffer (Meso Scale Diagnostics, Cat # R92TD-2) according to manufacturer's recommended procedure and luminescent signals were recorded with a SECTOR Imager 600 (Meso Scale Diagnostics). Luminescence intensity, measured in relative light units (RLU), was recorded to indicate the binding intensity of each antibody at the range of concentrations.

Assay [5] addresses T3, full length human MSR1 with a C-terminal Myc tag, on HEK293.Myc.hMSR1 cells (human, UniProt P21757 1-451).
T3 sequence (looked up): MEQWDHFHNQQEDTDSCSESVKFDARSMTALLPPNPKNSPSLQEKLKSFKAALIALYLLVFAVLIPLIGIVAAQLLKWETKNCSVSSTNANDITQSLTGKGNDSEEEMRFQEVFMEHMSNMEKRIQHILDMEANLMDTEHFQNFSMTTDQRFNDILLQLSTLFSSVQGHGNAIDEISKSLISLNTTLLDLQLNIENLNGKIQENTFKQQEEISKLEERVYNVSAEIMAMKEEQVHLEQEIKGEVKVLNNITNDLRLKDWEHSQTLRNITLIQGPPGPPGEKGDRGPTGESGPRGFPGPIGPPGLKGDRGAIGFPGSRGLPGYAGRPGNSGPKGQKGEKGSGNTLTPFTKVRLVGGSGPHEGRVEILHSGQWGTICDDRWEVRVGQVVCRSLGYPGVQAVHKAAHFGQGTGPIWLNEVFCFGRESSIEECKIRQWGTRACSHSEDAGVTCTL
Kind of assay: cell-based or functional assay.

In assay [6] the target is T3, full length human MSR1 with a …. Kind of assay: ECL cell binding, HEK293.Myc.hMSR1 cells, 11 nM.

B1: H1H27760P2-N297Q (antibody, V domains shown)
VH: EVQLVESGGGLVQPGRSLRLSCAASGFTFDAYAMHWVRQAPGKGLEWVSGISWNSGSIGYADSVKGRFTISRDNAKNSLYLQMNSLREEDTALYYCAKDKILELYYYGMDVWGQGTTVTVSS
VL: not shown
notes: Human IgG1 Fc with N297Q; also called H1H27760P-N297Q
With B1, the “% Blocking” value is -47% in assay [1], -43% in assay [2] and -4% in assay [3].

B2: H1H27739P-N297Q (antibody, V domains shown)
VH: EVQLVESGGGLVQPGGSLRLSCTASGFTFSSYAMSWVRQAPGKGLEWVSAISGTGSSTYFTDSVKGRFAISRDNSKNTLYLQMNSLRAEDTAVYYCAKDGEWLSTVTLFDYWGQGTLVTVSS
VL: EIVMTQSPATLSVSPGERATLSCRASQSVSSNLAWYQQKPGQAPRLLIYGASTRATGIPARFSGSGSGTDFTLTISSLQSEDFALYYCQQYFIWPPHPTFGPGTKVDIKR
notes: Human IgG1 Fc with N297Q
Turning to B2, the entries for the “% Blocking” value in assay [1], in assay [2] and in assay [3] were -41%, -47% and -9%, respectively.

B3: H1H27761P2-N297Q (antibody, V domains shown)
VH: EVQLVESGGDLVQPGGSLRLSCSASGFTFNIYAMSWVRQAPGKGLEWVSGISGSGGSTYYADSVKGRFTISRDNSKNTLYFQMNSLRVEDTAVYYCAKKISSSSYYYYAMDVWGQGTTVTVSS
VL: not shown
notes: Human IgG1 Fc with N297Q; also called H1H27761P-N297Q
In the case of B3, the figures for the “% Blocking” value in assay [1], in assay [2] and in assay [3] were -21%, -36% and -4%, respectively.

B4: H2aM21229N (antibody, mouse IgG2a, V domains shown)
VH: EVQLVESGGGLVKPGGSLRLSCAASGFTFSRYSMNWVRQAPGKGLEWVSSISSSSSYIYYGDTVKGRFTISRDNAKKSLYLQMNSLRAEDTAVYYCVRDRGQLVLYFDYWGQGTLVTVSS
VL: DIQMTQSPASLSTSIRDRVTITCRASLSISSFLNWFQQRPGKAPKLLIYVASNLQSGVPSRFSDSGSGTDFTLTISSLQPEDFATYYCQQNYSTPPITFGQGTRLEIK
notes: mouse IgG2a Fc
B4: the “ratio of binding signal (RLU) to isotype control” value (from here on “ratio of binding signal (RLU)”) in assay [4] stood at 27 fold. In assay [5], the “% Inhibition of Dil-Oxidized LDL uptake” value was found to be 26% and the “IC50 of Dil-Oxidized LDL uptake inhibition” value was greater than 100 nM. The “ratio of binding signal (RLU)” value in assay [6] was 78 fold.

B5: H1H27756P-N297Q (antibody, V domains shown)
VH: QVQLVESGGGVVQPGRSLRLSCAASGFTFSNYDMHWVRQAPGKGLEWMAVISYDGINKYYADSVKGRFTISRDNSKNTLYLQMNSLRAEDTAVYYCAKGTYSWYFDLWGRGTLVTVSS
VL: not shown
notes: Human IgG1 Fc with N297Q
Regarding B5, the entries for the “% Blocking” value in assay [1], in assay [2] and in assay [3] were -45%, -54% and -8%, respectively.

B6: H1H27751P-N297Q (antibody, V domains shown)
VH: EVQLVESGGGLVQPGGSLRLSCAASGFTFSNYAMHWVRQAPGKGLEYVSAISSNGGSTYYADSVKGRITISRDNSKNTLYLQMGSLRAEDMAVYYCARGRPYYYYFGMDVWGQGTTVTVSS
VL: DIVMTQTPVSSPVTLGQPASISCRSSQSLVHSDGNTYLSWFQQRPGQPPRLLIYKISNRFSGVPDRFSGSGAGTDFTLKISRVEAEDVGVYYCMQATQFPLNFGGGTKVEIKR
notes: Human IgG1 Fc with N297Q
Turning to B6, the “% Blocking” value is -31% in assay [1], -51% in assay [2] and -11% in assay [3].

B7: H1H27749P-N297Q (antibody, V domains shown)
VH: QVQLQESGPGLVKPSETLSLTCTVSDGSISSYYWSWIRQPPGRGLEWIGFIYYSGSTSYNPSLKSRVTISVDTSMSQFSLKLRSVTAADTAVYYCARGSPFDYWGPGTLVTVSS
VL: EIVLTQSPGTLSLSPGERATLSCRASQSVSSSYLAWYQQRPGQAPSLLISGASRRATGIPDRFSGSGSGTDFTLTIRRLEPEDFAMYYCQQYGSSPPTFGGGTKVEIKR
notes: Human IgG1 Fc with N297Q
For the molecule B7, the “% Blocking” value was -21% in assay [1], -51% in assay [2] and -1% in assay [3].

B8: H1H27759P2-N297Q (antibody, human IgG1, V domains shown)
VH: EVQLVESGGGFVQPGGSLRLSCAASGFTFSSYAMSWVRQAPGKGLEWVSAISGTGSNTYYADSVKGRFTISRDNSKNTLYLQMNSLRAEDTAVYYCAKDRVTTVTYYFDYWGQGTLVTVSS
VL: not shown
notes: Human IgG1 Fc with N297Q; also called H1H27759P-N297Q
For B8, the “% Blocking” value in assay [1] is -62%; in assay [2], -45%; in assay [3], -19%.

B9: H1xH27759P2 (antibody, V domains shown)
VH: B8 VH
VL: not shown
In the case of B9, the “ratio of binding signal (RLU)” value in assay [4] was determined as 21 fold; in assay [6], 22 fold.

B10: H2aM25695N (antibody, mouse IgG2a, V domains shown)
VH: QVQLQESGPGLVKPSETLSLTCTVTGGSISRNYWSWIRQPPGKGLEWIGYIYYSGSINYNPSLKSRVTISVDMSKNQFSLKLNSVTAADTAVYYCARDRWNWKYGMDVWGQGTTVIVSS
VL: EIVLTQSPGTLSLSPGERATLSCRASQTVRNSYLAWYHQKPGQAPRLLIYGASSRATGIPDRFSGSGSGTDFTLTISRLEPEDFAVYYCQQYGSSYWTFGQGTKMEIKR
notes: mouse IgG2a Fc
Turning to B10, in assay [4], the “ratio of binding signal (RLU)” value amounted to 45 fold. Further, in assay [5], the “% Inhibition of Dil-Acetylated LDL uptake” value stood at 40%, the “% Inhibition of Dil-Oxidized LDL uptake” value turned out to be 69%, the “IC50 of Dil-Acetylated LDL uptake inhibition” value is greater than 170 nM and the “IC50 of Dil-Oxidized LDL uptake inhibition” value was greater than 16 nM. Also, the “ratio of binding signal (RLU)” value in assay [6] turned out to be 35 fold.

B11: H1xH29283P2 (antibody, V domains shown)
VH: QVQLVQSGTEVKKPGSSVKVSCKASGGTFSRYTFSWVRQAPGQGLEWMGGIIPIFGTTNYAQKFQGRVTITTDESTSTVYMELSSLRSEDTAVYYCTRGGRYGWFDPWGQGTLVTVSS
VL: not shown
With B11, the “ratio of binding signal (RLU)” value turned out to be 24 fold in assay [4] and 26 fold in assay [6].

B12: H1H27762P2-N297Q (antibody, V domains shown)
VH: B11 VH with T9A, T33D, F34I, T58S, T97A
VL: not shown
notes: Human IgG1 Fc with N297Q; also called H1H27762P-N297Q
With B12, the “% Blocking” value in assay [1] was -65%; in assay [2], -58%; in assay [3] it was -16%.

B13: H1H27747P-N297Q (antibody, V domains shown)
VH: QVQLVESGGAVVQPGRSLRLSCAASGFTFSYYGMHWVRQAPGKGLEWVAVISYDGSKKYYADSVKGRFTISRDNSKNTLYLQMNSLRAEDTAVYYCAKDLTVDFYYGMDVWGQGTTVTVSS
VL: DIQMTQSPSSVSASVGDRVTITCRASQGISSWLAWYQQKPGKAPKLLIYATSSLQSGAPSRFSGSGSGTDFTLTISSLQPEDFATYFCQQANSFPYTFGQGTKLEIKR
notes: Human IgG1 Fc with N297Q
Turning to B13, the “% Blocking” value in assay [1] was -31%; in assay [2] it was -44%; in assay [3] it was -2%.

B14: H1H27754P-N297Q (antibody, V domains shown)
VH: EVQLVESGGGLVQPGGSLRLSCAASGFTFRTYAMTWVRQAPGKGLDWVSAITGDGGNTYYADSVKGRFTISRDNSKNTLYLQMNSLRAEDTAIYYCAKDQRFSFALYYFDYWGQGTLVTVSS
VL: B13 VL with K42N, T51A, S52F, A58V, F87Y, S93N, Y96W, L104V
notes: Human IgG1 Fc with N297Q
Take B14: the “% Blocking” value was -44% in assay [1], -42% in assay [2] and -9% in assay [3].

B15: H2aM21228N (antibody, mouse IgG2a, V domains shown)
VH: VQLVESGGGLVQPGGSLRLSCAASGFTFSDHYMDWVRQAPGKGLEWVGRTRNKANSHTTEYAASVSGRFTISRDDSKNSLYLQMNSLKTEDTAVYYCTRAGIIGTLFDYWGQGTLVTVSS
VL: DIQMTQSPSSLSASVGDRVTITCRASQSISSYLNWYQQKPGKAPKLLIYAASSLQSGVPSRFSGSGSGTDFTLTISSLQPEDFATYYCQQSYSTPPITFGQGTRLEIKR
notes: mouse IgG2a Fc
For the molecule B15, in assay [4], the “ratio of binding signal (RLU)” value was determined as 60 fold. In assay [5], the “% Inhibition of Dil-Acetylated LDL uptake” value turned out to be 10%, the “% Inhibition of Dil-Oxidized LDL uptake” value turned out to be 79%, the “IC50 of Dil-Acetylated LDL uptake inhibition” value is greater than 100 nM and the “IC50 of Dil-Oxidized LDL uptake inhibition” value worked out at 3.1 nM. Further, the “ratio of binding signal (RLU)” value in assay [6] was determined as 66 fold.
